Consider two molecules from PMC6814707 (Communications Biology, 2019).

The target of assay [1] is recombinant human PD-1 protein (residues 21-167) (human) (UniProt Q15116). The experiment in a line: ELISA; blocking: plates coated with 0.5 ug/mL PD-1 (21-167); antibody from 3 ug/mL, 1.5-fold dilutions, 37 °C 120 min; then 1 ug/mL PD-L1-mFc, detected with HRP-anti-mouse Fc. (In general: In an ELISA, binding on a coated surface is turned into a signal by an enzyme label.)

The target of assay [2] is T1, human PD-1 extracellular domain (residues 21-167) (Homo sapiens, UniProt Q15116, N-linked glycans seen at N49, N58 and N116 (N58: two N-acetylglucosamines, one fucose and two mannoses; N49 and N116: one N-acetylglucosamine modelled); N74 ambiguous).
T1 construct: Construct used for the complex with MW11-h317 Fab and its crystal structure; also called hPD-1; Programmed cell death protein 1; source: CHO cells, electrotransfected; purified from supernatant by a nivolumab-coupled resin
As to the kind of experiment: crystal structure; PD-1 (21-167) and MW11-h317 Fab mixed 1:2, complex purified on Superdex 200; crystals at 16 °C in 0.1 M Bis-Tris pH 6.5, 28% PEG monomethyl ether 2000; 2.9 Å; two complexes per asymmetric unit. As to conditions: both partners purified.

T1 sequence (Q15116 21-167): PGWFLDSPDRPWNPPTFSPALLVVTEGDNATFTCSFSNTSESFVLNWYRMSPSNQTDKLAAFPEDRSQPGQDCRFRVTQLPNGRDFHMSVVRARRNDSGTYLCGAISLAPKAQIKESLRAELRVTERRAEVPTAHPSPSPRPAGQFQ
Chain of recombinant human PD-1 protein (residues 21-167) (human) (Q15116 21-167): as above

B1: MW11-h317 (humanized anti-PD-1 monoclonal antibody) (antibody, V domains shown)
VH: EVQLVESGGGLVKPGGSLRLSCAASGFTFSSYDMSWVRQAPGKGLEWVATISGGGSYTYYPDSVKGRFTISRDNAKNSLYLQMNSLRAEDTAVYYCASPDSSGVAYWGQGTLVTVSS
VL: DIVMTQSPLSLPVTPGEPASITCKASQDVETVVAWYLQKPGQSPRLLIYWASTRHTGVPDRFSGSGSGTDFTLKISRVEAEDVGVYYCQQYSRYPWTFGQGTKLEIK
Take B1: the IC50 in assay [1] worked out at 1.4 nM.

B2: MW11-h317 Fab (Fab, V domains shown)
VH: B1 VH
VL: B1 VL
notes: heavy chain of the Fab in the structure deposited here (PDB 6JJP); light chain of the Fab in the structure deposited here (PDB 6JJP); The methods speak of plasmids encoding VL and VH; also called MW11-h317 Fab fragment; source: HEK 293, co-transfected with two plasmids; purified from supernatant (Protein G, HiTrap Capto S)
For B2, in assay [2], the “stoichiometry N” value amounted to 1.

In general, IC50 refers to the midpoint of a concentration-inhibition curve. Broadly, the stoichiometry N is the number of molecules, sites or subunits per partner or assembly.
